Assay results published in the supplement of paper PMC9732359.
± gives the uncertainty stated by the source.

Test: protein stability index of a GFP-peptide fusion (yeast GPS) (PSI 1-4); higher = more stable; sorted into four equal gates, so the index is relative within each strain
Outline: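 Tiled 17-residue yeast protein peptides were fused downstream of GFP in a plasmid that also expresses Cherry, and the pooled library was carried in yeast. Mid-log cultures in leucine-free medium were sorted into four equal gates by GFP/Cherry fluorescence ratio, and plasmids from each gate were PCR-amplified and Illumina-sequenced, with reads assigned to strains by barcodes. The protein stability index for each peptide was each gate's read frequency times its gate number, summed.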

| Sequence | protein stability index (doa10∆) | protein stability index (pdr5∆) | protein stability index (san1∆) | protein stability index (ubr1∆) |
| --- | --- | --- | --- | --- |
| STSSGKVSYAVKKPQKS [SNM1] | 2.04 ± 0.13 | 2.76 ± 0.1 | 2.01 ± 0.17 | 3.02 ± 0.16 |
| LNEYKRETLVKTWEKVT [SMC2] | 1.67 ± 0.046 | 1.84 ± 0.046 | 1.77 ± 0.083 | 2.19 ± 0.039 |
| IIVKILYYRPHINKKSQ [GRR1] | 1.66 ± 0.096 | 2.63 ± 0.11 | 1.23 ± 0.18 | 2.51 ± 0.11 |
| LSTLRMEADPSLHPLFE [RPN9] | 2.54 ± 0.057 | 2.33 ± 0.042 | 2.18 ± 0.096 | 2.41 ± 0.044 |
| RASKLKIQASDVNIIGK [RPO31] |  | 3.04 ± 0.17 | 2.7 ± 0.24 |  |
| VRGGNIEIMGILMGFTL [RRI1] | 2.32 ± 0.074 | 2.56 ± 0.092 | 2.31 ± 0.16 | 2.9 ± 0.096 |
| SSVIQNYDIITASSLAH [YML103C/NUP188] | 1.69 ± 0.079 | 1.88 ± 0.066 | 1.98 ± 0.092 | 2.03 ± 0.041 |
| ITVTAKQQPTMQANKLD [SWI3] | 3.19 ± 0.096 | 3.15 ± 0.071 | 2.82 ± 0.07 | 3.01 ± 0.055 |
| VDTSTELESMLEDLKNT [RRP6] | 3.56 ± 0.24 | 3.03 ± 0.14 | 3.46 ± 0.11 | 3.13 ± 0.054 |
| IMELPGVYSDDELLSQL [SRP68] | 2.99 ± 0.065 | 3.13 ± 0.056 | 3.22 ± 0.045 | 3.05 ± 0.07 |
| TVLVIDNSEYSRNGDFP [RPN10] | 2.44 ± 0.058 | 2.73 ± 0.066 | 1.48 ± 0.098 | 2.44 ± 0.041 |
| LRSIYHQFHDILEEKTD [NSL1] | 2.22 ± 0.062 | 2.07 ± 0.047 | 2.18 ± 0.074 | 2.04 ± 0.04 |
| MVLRNVMEYDVKFYEIF [SRB8] | 1.88 ± 0.081 | 2 ± 0.099 | 1.62 ± 0.099 | 2.1 ± 0.067 |
| VIEEDYDDEQNTSAQHV [IRR1] | 3.5 ± 0.097 | 2.95 ± 0.12 | 3.12 ± 0.08 | 3.52 ± 0.19 |
| GSRMVRELFVMAREHAP [RPT6] | 1.82 ± 0.074 | 1.68 ± 0.073 | 1.09 ± 0.27 | 1.54 ± 0.079 |
| MSVQDTKAVEFSMGHIR [MED4] | 3.24 ± 0.11 | 3.37 ± 0.093 | 3.22 ± 0.069 | 2.9 ± 0.088 |
| NEDDALIYGISDEERDD [AAR2] | 3.29 ± 0.12 | 3.53 ± 0.13 | 3.62 ± 0.066 | 3.2 ± 0.12 |
| RKLMEMENILQRCKSNA [YIL149C/MLP2] | 2.04 ± 0.072 | 2.39 ± 0.086 | 2 ± 0.096 | 1.38 ± 0.095 |
| SFVGDYMHDTELNYFVG [GRR1] | 3.1 ± 0.068 | 3.04 ± 0.09 | 3.35 ± 0.061 | 3.22 ± 0.067 |
| ANVPSTATTGKRKPAKS [RPN4] | 2.64 ± 0.073 | 2.88 ± 0.082 | 2.64 ± 0.05 | 2.8 ± 0.05 |
| ADIENSTSGDPSEFHCL [SSN2] | 3.15 ± 0.18 | 3.31 ± 0.26 | 3.21 ± 0.12 | 3.29 ± 0.12 |
| FVIHIQEKNFQTGIFVY [RPB5] | 1.98 ± 0.062 | 1.58 ± 0.05 | 1.54 ± 0.16 | 1.88 ± 0.081 |
| KFILQILQILNLMILNT [YML103C/NUP188] | 1.3 ± 0.081 | 1.29 ± 0.064 | 1.42 ± 0.21 | 2.09 ± 0.03 |
| IPAWFLNRQNDITDGKD [RPS18A] | 2.91 ± 0.17 | 3.22 ± 0.15 | 2.76 ± 0.2 | 2.87 ± 0.09 |
| MESEEVPLTKRYQHLEK [PCI8] | 2.85 ± 0.075 | 3.07 ± 0.067 | 2.92 ± 0.048 | 3.14 ± 0.065 |
| VAALRFTAGARAKIVKA [RPL18A] | 1.31 ± 0.089 | 1.4 ± 0.069 | 1.24 ± 0.2 | 1.18 ± 0.1 |

| Sequence | protein stability index (doa10∆) | protein stability index (pdr5∆) | protein stability index (san1∆) | protein stability index (ubr1∆) |
| --- | --- | --- | --- | --- |
| AIVFEEIKNWISDIPYV [YMR129W/POM152] | 1.36 ± 0.043 | 1.42 ± 0.045 | 1.36 ± 0.075 | 1.72 ± 0.054 |
| NSLFYLKWSACTSLMDI [IRR1] | 1.68 ± 0.073 | 2.31 ± 0.047 | 1.61 ± 0.13 | 1.83 ± 0.042 |
| QLQQQPQMQCALQNLSQ [YGL172W/NUP49] | 2.19 ± 0.12 | 2.06 ± 0.09 | 2.42 ± 0.11 | 2.18 ± 0.077 |
| VADEEANIELTWAEGTF [RPC37] | 2.06 ± 0.067 | 2.98 ± 0.087 | 1.81 ± 0.097 | 2.52 ± 0.071 |
| SLTDVAFFTYDAGVTFN [ECM29] | 2.66 ± 0.065 | 2.34 ± 0.057 | 2.82 ± 0.063 | 2.6 ± 0.068 |
| EQQKGQQTAQTQLEQQR [SNF5] | 3.33 ± 0.11 | 3.4 ± 0.088 | 3.22 ± 0.079 | 3.1 ± 0.053 |
| DLTRVYKAISAQADKQD [FAS2] | 1.54 ± 0.054 | 1.72 ± 0.049 | 1.74 ± 0.1 | 1.75 ± 0.044 |
| KLLGVDMQSSVDTGLQP [YLR018C/POM34] | 3.17 ± 0.077 | 3.12 ± 0.067 | 3.1 ± 0.062 | 3.14 ± 0.053 |
| DYTLQDIICEDSTLILE [RPB2] | 2.83 ± 0.082 | 2.64 ± 0.078 | 2.11 ± 0.11 | 2.15 ± 0.072 |
| NETSEQLVPIRLEFDQD [SNF5] | 3.19 ± 0.097 | 3.12 ± 0.099 | 3.31 ± 0.11 | 3.29 ± 0.07 |
| SYFLQERYFDCCTKFFT [PCI8] | 1.54 ± 0.069 | 1.52 ± 0.059 | 1.76 ± 0.08 | 2.13 ± 0.044 |
| AIPNSIIKRSNGQSLSP [YMR153W/NUP53] | 2.14 ± 0.12 | 2.68 ± 0.049 | 2.71 ± 0.061 | 2.69 ± 0.037 |
| YAIIINYTKDNEYYPMC [YCS4] | 1.36 ± 0.071 | 1.44 ± 0.092 | 1.61 ± 0.13 | 1.51 ± 0.082 |
| VDSRNETDHKTNENGET [SRB4] | 3.26 ± 0.16 | 2.75 ± 0.18 | 2.77 ± 0.098 | 3.27 ± 0.19 |
| DTKLRLEKSKNECQRLQ [YIL149C/MLP2] | 2.57 ± 0.055 | 2.85 ± 0.059 | 2.54 ± 0.056 | 2.87 ± 0.04 |
| EYKVITSLQGTYEAIEI [YMR129W/POM152] | 3.34 ± 0.2 | 2.99 ± 0.2 | 2.89 ± 0.14 | 3.17 ± 0.13 |
| SNSMDRSSSASNEFVPN [SWI1] | 2.75 ± 0.055 | 2.71 ± 0.055 | 2.65 ± 0.046 | 2.69 ± 0.045 |
| LAAIVSTVIEEFTLFMD [YGL172W/NUP49] | 2.21 ± 0.052 | 2.56 ± 0.061 | 2.1 ± 0.074 | 2.42 ± 0.055 |
| QLFRTNKVQIMIATNVA [PRP28] | 1.5 ± 0.055 | 1.43 ± 0.064 | 1.48 ± 0.081 | 1.7 ± 0.036 |
| SDPMLQRTATLCLEKLM [YCS4] | 1.47 ± 0.21 |  |  | 1.14 ± 0.17 |
| CEIHPSMILGVAASIIP [RPB2] | 1.35 ± 0.11 | 1.42 ± 0.1 | 1.14 ± 0.15 | 1.35 ± 0.16 |
| RRIPKRMRNRALREMRK [POP1] | 3.26 ± 0.11 | 2.45 ± 0.058 | 3.34 ± 0.078 | 2.88 ± 0.13 |
| APSGIRMHLAPASKQGY [SSN2] | 2.24 ± 0.17 | 2.48 ± 0.11 | 2.22 ± 0.13 | 2.36 ± 0.097 |
| PLQSIPEIGNRKINLFY [SWI1] | 1.51 ± 0.07 | 1.48 ± 0.072 | 2.54 ± 0.073 | 1.43 ± 0.064 |
| RKAYFTAPSSERRVLLS [RPL26B] | 1.45 ± 0.041 | 1.7 ± 0.051 | 2.49 ± 0.066 | 1.66 ± 0.045 |
| VSSKCNDIHLRFMRFLA [ECM29] | 2.23 ± 0.083 | 2.38 ± 0.06 | 2.74 ± 0.18 | 2.08 ± 0.08 |
